{"source": "paper PMC3433420", "about": "“Comprehensive Binary Interaction Mapping of SH2 Domains via Fluorescence Polarization Reveals Novel Functional Diversification of ErbB Receptors” (PLoS ONE, 2012)", "binders": {"B1": {"name": "ErbB2 pY1127 phosphopeptide, rhodamine-labelled, for protein microarrays (peptide)", "chain": "Rhodamine-ETDG[pY]VAPLTCSD", "modifications": "reading uncertain"}}, "assay_in_all_cases": "peptide or protein array; SH2/PTB proteins spotted on aldehyde slides, rhodamine peptide titrated in buffer B (20 mM HEPES, 100 mM KCl, 0.1% Tween-20, 5 mM DTT, pH 7.8), 1 h at room temperature; replicate assays", "settings_in_all_cases": "both partners purified", "key": {"SH2D1A SH2 domain": {"target": "T1, SH2D1A SH2 domain (human, UniProt O60880 6-104)", "T1 construct": "SH2D1A, human; source: bacterial expression, purified", "T1 sequence (looked up)": "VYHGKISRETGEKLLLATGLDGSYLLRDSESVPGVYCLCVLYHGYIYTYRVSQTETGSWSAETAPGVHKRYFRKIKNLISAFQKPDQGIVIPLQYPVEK"}, "[1]": {"target": "T2, ZAP70 C-terminal SH2 domain (human, UniProt P43403 1-619)", "T2 construct": "ZAP70, human; source: bacterial expression, purified", "T2 sequence (looked up)": "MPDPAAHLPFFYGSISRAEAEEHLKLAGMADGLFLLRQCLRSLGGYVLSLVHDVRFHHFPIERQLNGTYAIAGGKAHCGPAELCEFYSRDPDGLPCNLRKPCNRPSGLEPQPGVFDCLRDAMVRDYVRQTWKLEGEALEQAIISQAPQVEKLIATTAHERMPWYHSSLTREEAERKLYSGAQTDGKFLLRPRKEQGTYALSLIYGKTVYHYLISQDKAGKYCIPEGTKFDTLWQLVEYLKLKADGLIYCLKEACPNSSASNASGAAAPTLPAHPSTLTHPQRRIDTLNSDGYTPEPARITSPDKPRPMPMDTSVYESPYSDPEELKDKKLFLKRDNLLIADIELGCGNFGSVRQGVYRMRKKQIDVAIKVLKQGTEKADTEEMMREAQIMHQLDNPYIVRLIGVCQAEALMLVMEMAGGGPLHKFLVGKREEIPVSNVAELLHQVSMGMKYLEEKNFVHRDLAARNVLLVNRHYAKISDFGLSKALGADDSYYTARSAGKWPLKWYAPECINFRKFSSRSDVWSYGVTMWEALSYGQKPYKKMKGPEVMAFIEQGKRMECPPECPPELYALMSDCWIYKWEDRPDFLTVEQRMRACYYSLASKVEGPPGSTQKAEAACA"}, "[2]": {"target": "T3, PTPN11 tandem SH2 domains (human)", "T3 construct": "PTPN11, human; also called PTPN11-NC; source: bacterial expression, purified", "T3 sequence (Q06124 whole entry, looked up)": "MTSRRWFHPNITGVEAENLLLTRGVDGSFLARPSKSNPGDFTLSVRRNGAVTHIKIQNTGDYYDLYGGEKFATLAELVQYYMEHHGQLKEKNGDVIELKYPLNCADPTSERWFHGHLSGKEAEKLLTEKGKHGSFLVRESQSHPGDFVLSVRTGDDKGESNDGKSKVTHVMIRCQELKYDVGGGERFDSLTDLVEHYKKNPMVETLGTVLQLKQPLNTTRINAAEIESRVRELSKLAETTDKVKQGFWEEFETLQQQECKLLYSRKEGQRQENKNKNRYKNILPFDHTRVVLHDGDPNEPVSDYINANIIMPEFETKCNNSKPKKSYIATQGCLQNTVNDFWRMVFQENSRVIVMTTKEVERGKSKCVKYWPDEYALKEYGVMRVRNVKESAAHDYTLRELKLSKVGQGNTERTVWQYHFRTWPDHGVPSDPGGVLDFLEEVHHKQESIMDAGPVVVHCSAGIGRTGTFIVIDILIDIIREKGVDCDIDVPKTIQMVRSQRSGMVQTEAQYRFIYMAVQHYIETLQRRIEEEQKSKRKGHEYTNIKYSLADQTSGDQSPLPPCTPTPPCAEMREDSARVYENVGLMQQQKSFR"}, "SOCS5 SH2 domain": {"target": "T4, SOCS5 SH2 domain (human, UniProt O75159 381-476)", "T4 construct": "SOCS5, human; source: bacterial expression, purified", "T4 sequence (looked up)": "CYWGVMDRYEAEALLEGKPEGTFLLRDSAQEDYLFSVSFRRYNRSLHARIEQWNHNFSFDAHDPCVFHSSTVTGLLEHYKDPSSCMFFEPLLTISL"}, "NCK1 SH2 domain": {"target": "T5, NCK1 SH2 domain (human, UniProt P16333 282-376)", "T5 construct": "NCK1, human; source: bacterial expression, purified"}, "[3]": {"target": "T6, SYK C-terminal SH2 domain (human)", "T6 construct": "SYK, human; source: bacterial expression, purified"}, "BTK SH2 domain": {"target": "T7, BTK SH2 domain (human, UniProt Q06187 281-377)", "T7 construct": "BTK, human; source: bacterial expression, purified", "T7 sequence (Q06187 281-377)": "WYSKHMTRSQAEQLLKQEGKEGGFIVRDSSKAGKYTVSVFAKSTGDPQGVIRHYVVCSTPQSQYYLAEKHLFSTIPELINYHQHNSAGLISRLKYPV"}}, "note": "Where “and” joins values, the source holds several entries; their conditions need not be identical. Equal values may be shown once. Non-standard residues stand in square brackets, D forms with d. No end group written: not given here. pY = N[C@@H](Cc1ccc(OP(=O)(O)O)cc1)C(=O)O; Rhodamine = not defined here", "data": [{"binder": "B1", "values": [{"measurement": "Kd", "setting": "SH2D1A SH2 domain", "result": "1600 nM and 4590 nM"}, {"measurement": "Kd", "setting": "[1]", "result": "2200 nM and 3210 nM"}, {"measurement": "Kd", "setting": "[2]", "result": "1150 nM and 1530 nM"}, {"measurement": "Kd", "setting": "SOCS5 SH2 domain", "result": 698, "unit": "nM"}, {"measurement": "Kd", "setting": "NCK1 SH2 domain", "result": 6850, "unit": "nM"}, {"measurement": "Kd", "setting": "[3]", "result": "1920 nM and 2390 nM"}, {"measurement": "Kd", "setting": "BTK SH2 domain", "result": "4710 nM and 5890 nM"}]}]}
